Experiments:
[1] = molecular target: T1, GAL4 activation domain-MP36a fusion (pGAD10 clone MP36a) (UniProt P04386 768-881); experiment: yeast two-hybrid liquid assay (β-galactosidase)
T1 construct: Prey clone from a human brain cDNA library

[2] = molecular target: T2, GAL4 activation domain-MP23a fusion (pGAD10 clone MP23a, partial synapsin-like protein) (human); experiment: yeast two-hybrid liquid assay (β-galactosidase)
T2 construct: Partial clone; also called SLP (MP23a)
T2 chain: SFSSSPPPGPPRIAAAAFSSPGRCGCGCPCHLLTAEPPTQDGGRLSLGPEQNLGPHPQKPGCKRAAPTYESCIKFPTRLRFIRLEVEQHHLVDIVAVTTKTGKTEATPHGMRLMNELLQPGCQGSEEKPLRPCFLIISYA

B1: GAL4 binding domain-parkin(1-465) fusion encoded by pGBT9-parkin(1-465) (other, UniProt P04386 1-147, looked up)
chain: MKLLSSIEQACDICRLKKLKCSKEKPKCAKCLKNNWECRYSPKTKRSPLTRAHLTEVESRLERLEQLFLLIFPREDLDMILKMDSLQDIKALLTGLFVQDNVNKDAVTDRLASVETDMPLTLRQHRISATSSSEESSNKGQRQLTVSMIVFVRFNSSHGFPVEVDSDTSIFQLKEVVAKRQGVPADQLRVIFAGKELRNDWTVQNCDLDQQSIVHIVQRPWRKGQEMNATGGDDPRNAAGGCEREPQSLTRVDLSSSVLPGDSVGLAVILHTDSRKDSPPAGSPAGRSIYNSFYVYCKGPCQRVQPGKLRVQCSTCRQATLTLTQGPSCWDDVLIPNRMSGECQSPHCPGTSAEFFFKCGAHPTSDKETSVALHLIATNSRNITCITCTDVRSPVLVFQCNSRHVICLDCFHLYCVTRLNDRQFVHDPQLGYSLPCVAGCPNSLIKELHHFRILGEEQYNRYQQYGAEECVLQMGGVLCPRPGCGAGLLPEPDQRKVTCEGGNGLGCGFAFCRECKEAYHEGECSAVFEASGTTTQAYRVDERAAEQARWEAASKETIKKTTKPCPRCHVPVEKNGGCMHMKCPQPQCRLEWCWNCGCEWNRVCMGDHWFDV
notes: Yeast two-hybrid bait expressed in yeast strain Y190; also called parkin bait
[1]
  fold β-galactosidase activity over negative control vector pGBT9: ~20 fold
[2]
  fold β-galactosidase activity over negative control vector pGBT9: ~30 fold

— US8138307 (CEDARS SINAI MEDICAL CENTER, dated 2012)
